In patent publication US8058228B2, “Leptin peptide antagonists” (Boston Biomedical Research Institute, priority 2004, dated 2011):

Biological target: T1, IL-1R tl (Homo sapiens, UniProt P14778)
T1 construct: endogenous in cells; host or cells: Ishikawa cells
T1 sequence (P14778 18-569): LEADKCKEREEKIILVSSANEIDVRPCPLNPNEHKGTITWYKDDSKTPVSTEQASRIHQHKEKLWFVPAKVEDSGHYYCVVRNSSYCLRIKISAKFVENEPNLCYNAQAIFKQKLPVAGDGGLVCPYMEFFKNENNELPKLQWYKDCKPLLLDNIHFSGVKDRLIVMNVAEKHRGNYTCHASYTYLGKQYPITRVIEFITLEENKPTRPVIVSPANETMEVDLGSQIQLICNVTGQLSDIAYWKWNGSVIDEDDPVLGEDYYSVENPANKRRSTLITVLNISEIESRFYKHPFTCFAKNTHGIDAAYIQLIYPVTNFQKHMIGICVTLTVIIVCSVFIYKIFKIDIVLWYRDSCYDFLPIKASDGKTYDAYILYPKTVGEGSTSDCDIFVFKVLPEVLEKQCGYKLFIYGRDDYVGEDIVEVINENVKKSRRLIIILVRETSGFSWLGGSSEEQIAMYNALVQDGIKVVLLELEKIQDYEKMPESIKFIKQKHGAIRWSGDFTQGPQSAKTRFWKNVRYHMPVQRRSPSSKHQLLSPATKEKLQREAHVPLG
Test: IL-1β and IL-1R tl inhibitors: effects on LIF-R levels in Ishikawa cells (Western blot)
Type: cell-based
Procedure: Primary human endometrial cells (ESC and EEC) were cultured for 5-9 days in DMEM-F12 medium containing 5% fetal bovine serum (FBS), 5 μg/ml insulin, 1% amphopthericin B, 100 μg/ml streptomycin and 100 U/ml penicillin until they were 80% confluent. Two types of endometrial epithelial cell lines, HES (originally derived from a benign proliferative endometrium) and Ishikawa (human endometrial epithelial adenocarcinoma, ECACC 9832301, Wiltshire, England) were cultured under the same conditions described above. The cells were washed twice with 100 mM phosphate saline buffer (PBS), pH 7.2 and cultured for additional 2 days in the same medium but without FBS (basal medium). Cells were washed as described before and cultured in basal medium containing leptin (0, 3, 10 or 62 nM) or IL-1β (0.6, 3 and 10 nM). […]
Endometrial cells were washed with ice-cold PBS and lysed by homogenization on ice with lysis buffer A [[…] Tris, pH 7.4, containing 137 nM NaCl, 2 mM EDTA, 10% glycerol, 50 mM β-glycerophosphate, 1% Nonidet P-40 and a mixture of proteases and phosphatase inhibitors composed of 100 μM antipain, 0.1 mg/ml trypsin inhibitor, protease inhibitor cocktail 1:50 (Sigma), 50 nM NaF, 2 mM phenyl-methylsulfonyl fluoride, and 2 mM sodium orthovanadate]. […] Protein concentrations were determined using the Bradford protein assay (BioRad Laboratories Inc., Hercules, Calif.). […]

Row | effect on leptin-induced increase in LIF-R levels (IL-1Ra 1000 pg/ml or anti IL-1R tl antibody 20 μg/ml) | LIF-R levels after IL-1β (IL-1β 3 and 10 nM, dose dependent) | Substance
1 | partially blocked |  | IL-1Ra: human recombinant IL-1 receptor antagonist (R&D Systems), inhibitor of IL-1R tl
2 |  | increased the levels of LIF-R | IL-1β: human recombinant IL-1β (R&D Systems)
